US12318427

Columns and labels:
Assay in all cases: cell_activity
[1] = system: ZFP-TF SBS 57930 (artificial); settings: AAV6 SYN1, human iPSC-derived neurons, 32 days, ELISA
[2] = system: ZFP-TF SBS 65918 R(-5)Q in F1 and F5 (Qm5 phosphate contact mutants) (artificial); settings: AAV6 SYN1, human iPSC-derived neurons, 32 days, ELISA; combined with 57890 >10-fold
[3] = system: ZFP-TF SBS 57890 (artificial); settings: AAV9 hSYN1 in humanized tau mice, 6 wk; mouse tau ~81%; human iPSC neurons tau protein reduced 2-fold (p208)

| Sequence | activity (fold tau protein reduction) [1] | activity (fold tau protein reduction) [2] | activity (% human tau mRNA repression) [3] |
| --- | --- | --- | --- |
| CGGCAGAAGGTGGGCGGTGGCGGCGGCG (double strand) [MAPT target site of 57930/65918] | > 5 | > 2 |  |
| TGGTGCTGGAGCTGGTGGGTGGCGGAGA (double strand) [MAPT target site of 57890] |  |  | 60 |
